Measurements reported in patent publication JP2014185312A (dated 2014).
No end group written: not given here.

Biological target: T1, Recombinant Human ErbB2/Fc Chimera (R&D Systems) (human, UniProt P04626 23-652)
T1 construct: Bought reagent, immobilised by amine coupling on a GLM sensor chip (about 3000 RU); also called HER2; not shown: Fc part (and any linker or tag) of the bought chimera; not described
Assay: SPR (ProteOn XPR36), ErbB2/Fc immobilised on GLM chip, conjugate as analyte, 1:1 Langmuir fit

| Binder | binding result |
| --- | --- |
| MARSGLGGKGSC (not fully specified (residue 12); also: labelled with ICG-Sulfo-OSu, position not given here, Tested as the PEG/ICG conjugate; also called pe−PEG20) | binds |
| MARSGLGGKGSC (not fully specified (residue 12); also: labelled with ICG-Sulfo-OSu, position not given here, Tested as the PEG/ICG conjugate; also called pe−PEG40) | binds |
